Measured values taken from patent US20190040115A1 (IMMATICS BIOTECHNOLOGIES, published 2019).

Molecular target: T1, HLA-A*02:01 (human)
T1 construct: captured on streptavidin plates; also called peptide-receptive MHC molecules
Assay: UV peptide exchange ELISA (anti-b2m); yield grade: + >10%, ++ >20%, +++ >50, ++++ >75%
Source text: Candidate peptides for T cell based therapies according to the present invention were further tested for their MHC binding capacity (affinity). The individual peptide-MHC complexes were produced by UV-ligand exchange, where a UV-sensitive peptide is cleaved upon UV-irradiation, and exchanged with the peptide of interest as analyzed. Only peptide candidates that can effectively bind and stabilize the peptide-receptive MHC molecules prevent dissociation of the MHC complexes. To determine the yield of the exchange reaction, an ELISA was performed based on the detection of the light chain (β2m) of stabilized MHC complexes. The assay was performed as generally described in Rodenko et al. (Rodenko et al., 2006).
96 well MAXISorp plates (NUNC) were coated over night with 2 ug/ml streptavidin in PBS at room temperature, washed 4× and blocked for 1 h at 37° C. in 2% BSA containing blocking buffer. Refolded HLA-A*02:01/MLA-001 monomers served as standards, covering the range of 15-500 ng/ml. Peptide-MHC monomers of the UV-exchange reaction were diluted 100 fold in blocking buffer. Samples were incubated for 1 h at 37° C., washed four times, incubated with 2 ug/ml HRP conjugated anti-β2m for 1 h at 37° C., washed again and detected with TMB solution that is stopped with […]. Absorption was measured at 450 nm. Candidate peptides that show a high exchange yield (preferably higher than 50%, most preferred higher than 75%) are generally preferred for a generation and production of antibodies or fragments thereof, and/or T cell receptors or fragments thereof, as they show sufficient avidity to the MHC molecules and prevent dissociation of the MHC complexes.

Binder: FLDDQETRL
- peptide exchange yield: 50 to 75%

Binder: ALMDTDGSGKLNL
- peptide exchange yield: 50 to 75%

Binder: GLVDVLYTA
- peptide exchange yield: 50 to 75%

Binder: AVDATVNQV
- peptide exchange yield: 50 to 75%

Binder: IQSETTVTV
- peptide exchange yield: > 75%

Binder: HLFETISQA
- peptide exchange yield: 50 to 75%

Binder: YLDTFALKL
- peptide exchange yield: > 75%

Binder: RLDEVSREL
- peptide exchange yield: 50 to 75%

Binder: ALDPAYTTL
- peptide exchange yield: 50 to 75%

Binder: FVDPNGKISL
- peptide exchange yield: 50 to 75%

Binder: FLDASGAKL
- peptide exchange yield: > 75%

Binder: ILDDQTNKL
- peptide exchange yield: 50 to 75%

Binder: ALFPGDVDRL
- peptide exchange yield: 50 to 75%

Binder: ILPSNLLTV
- peptide exchange yield: 50 to 75%

Binder: TLVAFLQQV
- peptide exchange yield: > 75%

Binder: KQQASQVLV
- peptide exchange yield: 50 to 75%

Binder: FAYDGKDYIAL
- peptide exchange yield: 50 to 75%

Binder: ILDDSALYL
- peptide exchange yield: > 75%

Binder: TLGTATFTV
- peptide exchange yield: > 75%

Binder: TLISDIEAVKA
- peptide exchange yield: 50 to 75%

Binder: RLEAYLARV
- peptide exchange yield: 50 to 75%

Binder: VLPDDLSGV
- peptide exchange yield: 50 to 75%

Binder: FLDVKELML
- peptide exchange yield: > 75%

Binder: VVDDIVSKL
- peptide exchange yield: 20 to 50%

Binder: IMEDFTTFL
- peptide exchange yield: > 75%

Binder: RLDDKTTNV
- peptide exchange yield: 50 to 75%

Binder: TMIEICEKL
- peptide exchange yield: > 75%

Binder: YIDDVFMGL
- peptide exchange yield: 50 to 75%

Binder: SLGLGFISRV
- peptide exchange yield: 50 to 75%

Binder: TVIRPLPGL
- peptide exchange yield: 20 to 50%

Binder: SLDQIIQHL
- peptide exchange yield: 50 to 75%

Binder: SLDAVMPHL
- peptide exchange yield: 50 to 75%

Binder: VLDVSFNRL
- peptide exchange yield: 50 to 75%

Binder: KMTQYITEL
- peptide exchange yield: > 75%

Binder: YVIDPIKGL
- peptide exchange yield: 50 to 75%

Binder: GLAGFFASV
- peptide exchange yield: > 75%

Binder: LLGEGIPSA
- peptide exchange yield: > 75%

Binder: LLDEVLHTM
- peptide exchange yield: > 75%

Binder: KLFPSPLQTL
- peptide exchange yield: > 75%

Binder: SLKQTVVTL
- peptide exchange yield: 50 to 75%

Binder: NLREILQNV
- peptide exchange yield: 50 to 75%

Binder: GVGPVPARA
- peptide exchange yield: 50 to 75%

Binder: FVDGSAIQV
- peptide exchange yield: 50 to 75%

Binder: VLYEMLYGL
- peptide exchange yield: > 75%

Binder: YLDKTFYNL
- peptide exchange yield: 50 to 75%

Binder: TILATVPLV
- peptide exchange yield: > 75%

Binder: TLIELLLPKL
- peptide exchange yield: > 75%

Binder: VIDDLIQKL
- peptide exchange yield: 20 to 50%

Binder: FLPQKIIYL
- peptide exchange yield: > 75%

Binder: VLPAVLTRL
- peptide exchange yield: 50 to 75%

Binder: VLDTLTKVL
- peptide exchange yield: 50 to 75%

Binder: KLIPSIIVL
- peptide exchange yield: 50 to 75%

Binder: TLPNIYVTL
- peptide exchange yield: 50 to 75%

Binder: SLIDFVVTC
- peptide exchange yield: 50 to 75%

Binder: TLKDIVQTV
- peptide exchange yield: 50 to 75%

Binder: FLEDLVPYL
- peptide exchange yield: > 75%

Binder: TLSEICEFI
- peptide exchange yield: > 75%

Binder: LMDETMKEL
- peptide exchange yield: > 75%

Binder: YVDDFGVSV
- peptide exchange yield: 50 to 75%

Binder: VLYSLVSKI
- peptide exchange yield: 50 to 75%

Binder: YLFAFLNHL
- peptide exchange yield: > 75%

Binder: FLGEPASYLYL
- peptide exchange yield: > 75%

Binder: VLYDPVVGC
- peptide exchange yield: > 75%

Binder: QLMEGKVVL
- peptide exchange yield: > 75%

Binder: SVDEVEISV
- peptide exchange yield: 50 to 75%

Binder: NVDENVAEL
- peptide exchange yield: 20 to 50%

Binder: RLPDQFSKL
- peptide exchange yield: 50 to 75%
